Assay results as given in patent US20160161469A1, “SYNTHETIC MICROFLUIDIC SYSTEMS FOR WOUND HEALING” (CFD Research Corporation, priority 2013, published 2016).

Tested on: whole blood
Assay: Varying concentrations assay of hemostatic agent in the microfluidic hemostasis device (coagulation time at the vascular injury site)
Format: cell-based
Text: Biomolecules such as tissue factor (TF) can be used as a surrogate for hemostatic agents. TF is the primary cellular initiator of blood coagulation via the extrinsic pathway. After vessel injury, the TF:VIIa complex activates the coagulation protease cascade, which leads to fibrin deposition and activation of platelets (see FIGS. 7-8). TF expression by nonvascular cells plays an essential role in hemostasis by activating blood coagulation. In contrast, TF expression by vascular cells induces intravascular thrombosis. […] TF can be allowed to adhere to the surface of the channels by incubating at 37° C. and 5% CO2. Saline wash can be initiated to wash off any residual TF.
In order to mimic these conditions observed, TNF-α at a concentration of 10 μg/ml can be injected near the wound site of the tissue channel (e.g., outer channel) from the top inlet of the device. It should be noted that endothelial cells cultured in the vascular channel (e.g., central channel) can grow near the wound site opening, and also into the tissue area. Injection of TNF-α can activate the endothelial cells adjacent to the injection site to start expressing TF. At about 8 hour after activation, hemostasis restoration experiments can be initiated.
Whole blood can be kept anticoagulated using corn trypsin inhibitor (CTI). […] The time taken to completely repair (block) the opening can be recorded (FIG. 8). […]

B1: Tissue factor: primary cellular initiator of blood coagulation via the extrinsic pathway, used as a surrogate for hemostatic agents (protein, UniProt P13726 33-295, looked up)
Tissue factor: SGTTNTVAAYNLTWKSTNFKTILEWEPKPVNQVYTVQISTKSGDWKSKCFYTTDTECDLTDEIVKDVKQTYLARVFSYPAGNVESTGSAGEPLYENSPEFTPYLETNLGQPTIQSFEQVGTKVNVTVEDERTLVRRNNTFLSLRDVFGKDLIYTLYYWKSSSSGKKTAKTNTNEFLIDVDKGENYCFSVQAVIPSRTVNRKSTDSPVECMGQEKGEFREIFYIIGAVVFVVIILVIILAISLHKCRKAGVGQSWKENSPLNVS
time to coagulate (coagulation time of the whole blood at the vascular injury site) (Tissue factor at higher concentration of 10 μg/ml (extreme dose scenario)): less than 5 minutes | time to coagulate (coagulation time of the whole blood at the vascular injury site) (Tissue factor coated at 10 ng/ml in the tissue channel): ≥ 5 min
